Source: article PMC10786891, “Massively parallel profiling of RNA-targeting CRISPR-Cas13d”
Numbering of substitutions follows the chain as printed. Numbers in names are those of the source.

T1: EsCas13d, nuclease-dead (Eubacterium siraeum, UniProt B0MS50, R295A;H300A;R849A;H854A)
T1 sequence: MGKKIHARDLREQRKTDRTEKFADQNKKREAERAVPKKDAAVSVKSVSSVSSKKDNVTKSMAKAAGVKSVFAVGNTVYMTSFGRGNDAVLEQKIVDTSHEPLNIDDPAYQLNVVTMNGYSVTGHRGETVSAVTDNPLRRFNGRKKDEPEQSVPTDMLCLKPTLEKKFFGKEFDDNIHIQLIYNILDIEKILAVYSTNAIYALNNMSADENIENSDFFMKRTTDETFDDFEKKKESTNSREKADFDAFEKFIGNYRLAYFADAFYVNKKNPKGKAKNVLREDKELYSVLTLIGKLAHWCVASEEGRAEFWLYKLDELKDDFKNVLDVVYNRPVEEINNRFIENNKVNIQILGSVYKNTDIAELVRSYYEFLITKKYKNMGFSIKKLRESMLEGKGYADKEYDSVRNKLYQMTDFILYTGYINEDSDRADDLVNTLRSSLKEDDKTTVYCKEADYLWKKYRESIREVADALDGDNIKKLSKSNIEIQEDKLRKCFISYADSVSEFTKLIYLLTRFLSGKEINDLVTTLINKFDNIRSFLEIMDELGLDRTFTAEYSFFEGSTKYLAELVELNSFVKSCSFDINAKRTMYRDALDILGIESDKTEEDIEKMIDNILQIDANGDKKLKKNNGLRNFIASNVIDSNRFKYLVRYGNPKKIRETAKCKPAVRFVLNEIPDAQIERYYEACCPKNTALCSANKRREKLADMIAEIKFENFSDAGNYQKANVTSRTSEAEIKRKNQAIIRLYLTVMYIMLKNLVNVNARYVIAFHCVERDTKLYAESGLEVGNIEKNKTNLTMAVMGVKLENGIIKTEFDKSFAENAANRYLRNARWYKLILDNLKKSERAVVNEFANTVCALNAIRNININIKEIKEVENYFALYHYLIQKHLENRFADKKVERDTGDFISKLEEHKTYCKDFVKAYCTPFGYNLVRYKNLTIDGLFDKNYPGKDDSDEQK

B1: target 1 insA 3' of 8,insU 3' of 4 (mixed)
RNA 1: CACCCGUGCAAAAAUGCAGGGGUCUAAAACUGAGCGGAUAACCUCUCUAUGG
RNA 2: GGGAAUGGAUCCACAUCUACGAAUUCGUACCAUAGAGAGGUUAUACCGCUUCACCGAGAUCGGAAGAGCACACGU
B2: target 1 insC 3' of 20,insG 3' of 4 (mixed)
RNA 1: B1 RNA 1
RNA 2: GGGAAUGGAUCCACAUCUACGAAUUCGUACCACUAGAGAGGUUAUCCGCGUCACCGAGAUCGGAAGAGCACACGU
B3: target 1 insG 3' of 18,insG 3' of 14 (mixed)
RNA 1: B1 RNA 1
RNA 2: GGGAAUGGAUCCACAUCUACGAAUUCGUACCAUAGGAGAGGGUUAUCCGCUCACCGAGAUCGGAAGAGCACACGU
B4: target 1 insG 3' of 21,insU 3' of 20 (mixed)
RNA 1: B1 RNA 1
RNA 2: B3 RNA 2 with A32G, U33A, A34U, G35U, G36A, A37G, G38A, A39G, G40A
B5: target 1 insG 3' of 16,insG 3' of 11 (mixed)
RNA 1: B1 RNA 1
RNA 2: B3 RNA 2 with G36A, A37G, G42U, U43G
B6: target 1 U3G,G15C (mixed)
RNA 1: B1 RNA 1
RNA 2: GGGAAUGGAUCCACAUCUACGAAUUCGUACCAUAGACAGGUUAUCCGCGCACCGAGAUCGGAAGAGCACACGU
B7: target 1 insA 3' of 22,insA 3' of 22 (mixed)
RNA 1: B1 RNA 1
RNA 2: B3 RNA 2 with C31A, U33C, G35U, G36A, A37G, G38A, A39G, G40A
B8: target 1 insC 3' of 13 (mixed)
RNA 1: B1 RNA 1
RNA 2: GGGAAUGGAUCCACAUCUACGAAUUCGUACCAUAGAGAGCGUUAUCCGCUCACCGAGAUCGGAAGAGCACACGU
B9: target 1 insC 3' of 15 (mixed)
RNA 1: B1 RNA 1
RNA 2: B8 RNA 2 with A38C, G39A, C40G
B10: target 1 C4G,U19C (mixed)
RNA 1: B1 RNA 1
RNA 2: B6 RNA 2 with U33C, C37G, C48G, G49U
B11: target 1 insA 3' of 19,insC 3' of 19 (mixed)
RNA 1: B1 RNA 1
RNA 2: B3 RNA 2 with G35C, G36A, A37G, G38A, A39G, G40A
B12: target 1 U11A,G13A (mixed)
RNA 1: B1 RNA 1
RNA 2: B6 RNA 2 with C37G, G39A, U41A, G49U
B13: target 1 C2G,U19C (mixed)
RNA 1: B1 RNA 1
RNA 2: B6 RNA 2 with U33C, C37G, G49U, C50G
B14: target 1 C2G,C7A (mixed)
RNA 1: B1 RNA 1
RNA 2: B6 RNA 2 with C37G, C45A, G49U, C50G
B15: target 1 insU 3' of 18,insA 3' of 17 (mixed)
RNA 1: B1 RNA 1
RNA 2: B3 RNA 2 with G35U, G38A, A39G, G40A
B16: target 1 C7G,G17A (mixed)
RNA 1: B1 RNA 1
RNA 2: B6 RNA 2 with G35A, C37G, C45G, G49U
B17: target 1 insG 3' of 18,insC 3' of 18 (mixed)
RNA 1: B1 RNA 1
RNA 2: B3 RNA 2 with G36C, A37G, G38A, A39G, G40A
B18: target 1 insC 3' of 17,insU 3' of 9 (mixed)
RNA 1: B1 RNA 1
RNA 2: B3 RNA 2 with G36C, G42U, U44A, A45U
B19: target 1 insC 3' of 13,insA 3' of 3 (mixed)
RNA 1: B1 RNA 1
RNA 2: B1 RNA 2 with G40C, U41G, A43U, U44A, A45U, U51A
B20: target 1 insG 3' of 16,insC 3' of 14 (mixed)
RNA 1: B1 RNA 1
RNA 2: B3 RNA 2 with G36A, A37G, G40C
B21: target 1 insC 3' of 17,insG 3' of 4 (mixed)
RNA 1: B1 RNA 1
RNA 2: B2 RNA 2 with C33U, U34A, A35G, G36C
B22: target 1 insG 3' of 16,insA 3' of 4 (mixed)
RNA 1: B1 RNA 1
RNA 2: B2 RNA 2 with C33U, U34A, A35G, G36A, A37G, G50A
B23: target 1 insG 3' of 21,insC 3' of 20 (mixed)
RNA 1: B1 RNA 1
RNA 2: B3 RNA 2 with A32G, U33A, A34C, G35U, G36A, A37G, G38A, A39G, G40A
B24: target 1 insU 3' of 9,insU 3' of 5 (mixed)
RNA 1: B1 RNA 1
RNA 2: B1 RNA 2 with A45U, C49U, U50C
B25: target 1 insC 3' of 18,insU 3' of 2 (mixed)
RNA 1: B1 RNA 1
RNA 2: B2 RNA 2 with C33U, U34A, A35C, G50U, U51C, C52U
B26: target 1 U11A,G12U (mixed)
RNA 1: B1 RNA 1
RNA 2: B6 RNA 2 with C37G, G40U, U41A, G49U
B27: target 1 del3,del16 (mixed)
RNA 1: B1 RNA 1
RNA 2: GGGAAUGGAUCCACAUCUACGAAUUCGUACCAUAGGAGGUUAUCCGCCACCGAGAUCGGAAGAGCACACGU
B28: target 1 insU 3' of 17 (mixed)
RNA 1: B1 RNA 1
RNA 2: B8 RNA 2 with A36U, G37A, A38G, G39A, C40G
B29: target 1 insC 3' of 13,insC 3' of 8 (mixed)
RNA 1: B1 RNA 1
RNA 2: B1 RNA 2 with G40C, U41G, A43U, U44A, A45U, G48C, C49G, U50C

Biological target: T1, EsCas13d, nuclease-dead
Assay: crRNA (strand 1, pre-loaded); Mg2+; 40 mM Tris-HCl pH 7.5, 150 mM NaCl, 6 mM MgCl2, 1 mM DTT, 0.1% Tween-20, 0.2 mg/ml BSA; 25 C; 10 min per concentration, then washed
Conditions: tags: His6-TwinStrep-SUMO cleaved; N-terminal SNAP kept (SNAP-Surface 488); label: 3' end held by stalled T7 RNA polymerase

Binder | Kd [nM]
B1 | 12.3 ± 0.7
B2 | 11.4 ± 0.9
B3 | 63 ± 5
B4 | 58 ± 9
B5 | 50 ± 5
B6 | 34 ± 4
B7 | 9.9 ± 0.6
B8 | 9.1 ± 0.4
B9 | 16.3 ± 0.8
B10 | 28 ± 6
B11 | 21.5 ± 1.8
B12 | 38.5 ± 2.8
B13 | 18.5 ± 1
B14 | 6.22 ± 0.24
B15 | 54 ± 7
B16 | 49 ± 5
B17 | 30.8 ± 1.3
B18 | 39 ± 7
B19 | 6.88 ± 0.2
B20 | 38 ± 5
B21 | 30.9 ± 2.4
B22 | 10.5 ± 0.5
B23 | 15.3 ± 1.1
B24 | 8 ± 1.5
B25 | 38 ± 7
B26 | 5.1 ± 0.35
B27 | 85 ± 31
B28 | 14.1 ± 1.2
B29 | 13.1 ± 0.4
